Laboratory results from the nanobody polyreactivity screen of Harvey et al. (2022).

Assay: yeast display, Sf9 membrane polyspecificity reagent, FACS + sequencing; frameworks hold sequencing errors
Outline: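 Synthetic nanobody libraries on Saccharomyces cerevisiae BJ5465 were galactose-induced for 36–48 hours, stained 1 hour at 4 °C with 10% biotinylated, detergent-solubilized Sf9 membrane reagent and enriched on streptavidin microbeads. FACS then separated cells into low and high (top ~1%) gates by anti-HA (expression) and streptavidin (reagent binding) fluorescence. Genes were colony-PCR amplified, MiSeq 2 × 250 sequenced and CDR-length filtered. A clone's polyreactivity label is that of its gate of origin.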

Sequence	polyreactivity (PSR sort gate)
QVQLVESGGGLVQAGGSLRLSCAASGSTFSRNAMGWYRQAPGKERELVAAISWRGGRTYYADSVKGRFTISRDNAKNTVYLQMNRLKPEDTAVYYCAAEHKYRYDYWGQGTQVTVSS	low polyreactivity
QVQLVESGGGLVQAGGSLRLSCAASGSTFSRNTMGWYRQAPGKERELVAAITRSGDSTYYADSVKGRFTISRDNAKKTVYLQMNSLKPEDTAVYYCAARRAYLNYYYWGQGTQVTVSS	high polyreactivity
QVQLVESGGGLVQAGGSLRLSCAASGSTFSRYAMGWYRPAPGKERELVAAITRSGGGTHYADSVKGRFTISRDNAKNTVYLQMNSLKPEETAVYYCAKRQSGYRYDYWGQGTEVTVSS	low polyreactivity
QVQLVESGGGLVQAGGSLRLSCAASGSTFSRYAMGWYRQAPGKERELVAAISRRAGSTYYADSVKGRFTISRDNAKNTVYLQMNSLKPEDTAVYYCAARTWTENRDGDYWGQGTQVTVSS	high polyreactivity
QVQLVESGGGLVQAGGSLRLSCAASGSTFSRYAMGWYRQAPGKERELVAAISSRGGSTYYADSVKGRFTISRDNAKNTVYLQMNSLKPEDTAVYYCAARPYYYIVRGTEYDYWGQGTQVTVSS	high polyreactivity
QVQLVESGGGLVQAGGSLRLSCAASGSTFSRYAMGWYRQAPGKERELVAAISWSGGRTNYADSVKGRFTISRDNAKNTVYLQMNSLKPEDTAVYYCNAPFRHRYRVDYWGQGTQVTVSS	high polyreactivity
QVQLVESGGGLVQAGGSLRLSCAASGSTFSRYAMGWYRQAPGKERELVAAISYSGDSTYYADSVKGRFTISRDNAKNTVYLQMNSLKPEDTAVYYCNVYSHYRGYYWGQGTQVTVSS	high polyreactivity
QVQLVESGGGLVQAGGSLRLSCAASGSTFSRYTMGRYRQAPGKERELVAAIRRSGASTYYADSVKGRFTISRDNAKNTVYLQMNSLKPEDTAVYYFAVGRYRYGYWGQGTQVTVSS	high polyreactivity
QVQLVESGGGLVQAGGSLRLSCAASGSTFSRYTMGWYRQAPGKERELVAAISKSGGSTYYADSVKGRFTISRDNAKNTVYLQMNSLKPEDTAVYYCAALVRAGTSLDYDYWGQGTQVTVSS	high polyreactivity
QVQLVESGGGLVQAGGSLRLSCAASGSTFSSNAMGWYRQAPGKERELVAAINRTGNTYYADSVKGRFTISRDNAKNTVYLQMNSLKPEDTAVYYRNTVLNLYRGGGYWGQGTQVTVSS	low polyreactivity
QVQLVESGGGLVQAGGSLRLSCAASGSTFSSNAMGWYRQAPGNERELVAAISKRGGRTYYADSVKGRFTISRDNAKNTVYLQMNSLKPEDTAVYYCAKDYSSAVDYWGQGTQVTVSS	high polyreactivity
QVQLVESGGGLVQAGGSLRLSCAASGSTFSSYAMGWYRQAPGKERELVAAITYSGGSTYYADSVKGRFTISRDNAKNTVYLQMNSLKPEDTAVYYCATRSLFWSFTYYYWGQGTQVTVSS	low polyreactivity
QVQLVESGGGLVQAGGSLRLSCAASGSTFSSYAMGWYRQAPGKERELVARITSGDSTYYADSVKGRFTISRDNAKNTVYLQMNSLKPEDTAVYYCNAVAYGRTYDYWGQGTQVTVSS	high polyreactivity
QVQLVESGGGLVQAGGSLRLSCAASGSTFSSYVMGWYRQAPGKERELVAGITRGGRTYYADSVKGRFTISRDNAKNTVYLQMNSLKPEDTAVYYCNARDGVTTEFDYWGQGTQVTVSS	low polyreactivity
QVQLVESGGGLVQAGGSLRLSCAASGSTFSTYAMGWYRQAPGKERELVAAIRWSGGSTYYADSVKGRFTISRDNAKNTVYLQMNSLKPEDTAVYYCAKGIRRWYGGSDYWGQGTQVTVSS	low polyreactivity
QVQLVESGGGLVQAGGSLRLSCAASGSTFSTYAMGWYRQAPGKERELVAVITWRGGSTYYADSVKGRFTISRDNAKNTVYLQMNSLKPEDTAVYYCAAEGESPEYDYWGQGTQVTVSS	low polyreactivity
QVQLVESGGGLVQAGGSLRLSCAASGSTFSTYAMGWYRQAPGTERELVAASRWSGGSTYYADSVKGRFTISRDNAKNTVYLQMNSLKPEDTAVYYCAKGIRRWYGGSDYWGQGTQVTVSS	low polyreactivity
QVQLVESGGGLVQAGGSLRLSCAASGSTFSVNAMGWYRQAPGKERELVAAITYSGGSTYYADSVKGRFTISRDNAKNTVYLQMNSLKPEDTAVYYCAAEARYWIYEYDYWGQGTQVTVSS	high polyreactivity
QVQLVESGGGLVQAGGSLRLSCAASGSTFSVNPMGWYRQARVKERELVAAIDSGDSTYYADSVKGRFTISRDNAKNTVYLQMNSLKPEDTAVYYCATDVTFVYDLGYFQYDYWGQGTQVTVSS	low polyreactivity
QVQLVESGGGLVQAGGSLRLSCAASGSTFSVYAMGWYRQAPGKERELVAAISSGGTTNYADSVKGRFTISRDNAKNTVYLQMNSLKPEDTAVYYCAAEYDHYPYDYYWGQGTQVTVSS	low polyreactivity
QVQLVESGGGLVQAGGSLRLSCAASGSTFSYFAMGWYRQAPGKERELVAAISWNGGSTYYADSVKGRFTISRDNAKNTVYLQMNSLKPEDTAVYYCAAHPAYRDSWGEYDYWGQGTQVTVSS	low polyreactivity
QVQLVESGGGLVQAGGSLRLSCAASGSTFSYNAMGWYRQAPRKERELVAAISNTGSTYYADSVKGRFTISRDNAKNTVYLQMYSVKPEDSAVYYCAALWVHKRRQNSAHYDSWGQGTQVTVSS	low polyreactivity

Sequence	polyreactivity (PSR sort gate)
QVQLVESGGGLVQAGGSLRLSCAASGSTFSYNAMGWYRQAPWKERELVAAISWNGDSTYADSVKGRFTISRDNAKNTVYLQMNSLKPEDTAVYYCAKDTIITPGRRKSPRYRHGYWGQGTQVTVSS	low polyreactivity
QVQLVESGGGLVQAGGSLRLSCAASGSTFSYNAMGWYRRAPGKERELVAAISWNGDSTYADSVKGRFTISRDNAKNTVYLQMNSLKPEDTAVYYCAKETIITPGRRKSPRYLHGYWGQGTQVTVSS	low polyreactivity
QVQLVESGGGLVQAGGSLRLSCAASGSTFSYYAMGSYRQAPGKERELVADISWSGGSTYYADSVKGRFTISRDNAKNTVYLQMNSLKPEDTAVYYCAARGYVRWYNRYDYWGQGTQVTVSS	low polyreactivity
QVQLVESGGGLVQAGGSLRLSCAASGSTFSYYAMGWYRQAPGKERELVAAISRSGGSTYYADSVKGRFTISRDNAKNTVYFQMNSMKPEDTAVYYCADRGQYRYSFGDYSWGQGTQVTVSS	high polyreactivity
QVQLVESGGGLVQAGGSLRLSCAASGSTFSYYAMGWYRQAPGKERELVAAITSSGGSTYYADSVKGRFTISRDNAKNTVYLQMNSLKPEDTAVYYCNTAYHVPYDYWGQGTQVTVSS	low polyreactivity
QVQLVESGGGLVQAGGSLRLSCAASGSTFSYYAMGWYRQAPGKESELVAAISRTAVSTYYADSVKGRFTISRDNAKNTVYLQMYSLKPEDTAVYYCAASHYHGYSLGYDYWGQGTQVTVSS	high polyreactivity
QVQLVESGGGLVQAGGSLRLSCAASGSTFSYYDMGWYRQAPGKERELVAAISWNGGTTYYADSVKGRFTISRDNAKNTVYLQMNSLKPEDTAVYYCAATWDFYWAPDDSWGQGTQVTVSS	low polyreactivity
QVQLVESGGGLVQAGGSLRLSCAASGSTFSYYRMGWYRQATGTERELVASIDYSGESTYYADSVKGRFTISLDNAKNTVYLQMNSLNPEDTAVYYCAADDYPWNRYEYWGQGTQVTVSS	low polyreactivity
QVQLVESGGGLVQAGGSLRLSCAASGSTFTANAMGWYRQAPGKERELVAAITNSDGSTYYADSVKGRFTISRDNAKNTVYLQMNSLKPEETAVYYCAKDYYACYWEMDYWGLGTQVTVSS	low polyreactivity
QVQLVESGGGLVQAGGSLRLSCAASGSTFTAYAMGWYRQAPGKERELVAAINWSGGTTYYADSVKGRFTISRDNAKNTVYLQMNSLKPEDTAVYSCAVDGNFFGEVRPYDYWGQGTQVTVSS	low polyreactivity
QVQLVESGGGLVQAGGSLRLSCAASGSTFTAYAMGWYRQAPGKERELVADISDSGGSTYYADSVKGRFTISRDNAKNTVYLQMNSLKPEDTAVYYCAAAWVFKKGFGTEMDYWGQGTQVTVSS	low polyreactivity
QVQLVESGGGLVQAGGSLRLSCAASGSTFTAYVMGWYRQAPGKERELVAAISRSGGRTYYADSVKGRFTISRDNAKNTVYLQMNSLKPEDTAVYYCAARSGPLAYDYWGQGTQVTVSS	high polyreactivity
QVQLVESGGGLVQAGGSLRLSCAASGSTFTCYAMGWNRQAPRKERELVADITWRDGSTYYADSVKGRFTISRDNAKNTVYLQMNSLKPEDTAVYYCNGRRDYDMDWGQVTQVTVSS	high polyreactivity
QVQLVESGGGLVQAGGSLRLSCAASGSTFTDYDMGWYRQAPGKERELVAAITSGGSTNYADSVKGRFTISRDNAKNTVYLQMNSLKPEDTAVYYCKVRPYGFDSEFDYWGQGTQVTVSS	low polyreactivity
QVQLVESGGGLVQAGGSLRLSCAASGSTFTEYAMGWYRQAPGKERELVAGISSDGSTKYADSVKGRFTISRDNAKNTVYLQMNSLKPEDTAVYYCNKDQSYAKYDYWGQGTQVTVSS	low polyreactivity
QVQLVESGGGLVQAGGSLRLSCAASGSTFTFYTMGWYRQAPGKERELVAAITISAGSTYYADSVKGRFTFSRDNAKNTVYLQMNSLKPEDSAVYYCAADTYAHWGYYGSYYRDDYWGQGTQVTVSS	low polyreactivity
QVQLVESGGGLVQAGGSLRLSCAASGSTFTGYALGWYRQAPGKEREFVATITKRGGRTYYADSVKGRFTISRDNAKNTVYLQMHSLKPEDTAVYYCARDQGKLVVPYDYWGQGTQVTVSS	high polyreactivity
QVQLVESGGGLVQAGGSLRLSCAASGSTFTGYAMGWYRQAPGKERELVAAISRSGGSTSYADSVKGRFTISRDNAKNTVYLQMNSLKPEDTAVDYCAAQVQGTTRAKQRGGIGELDYWGQGTQVTVSS	low polyreactivity
QVQLVESGGGLVQAGGSLRLSCAASGSTFTGYTMGWYRQAPGKERELVASIRTYYADSVKGRFTISRDNAKNTVYLQMNSLKPEDTAVYYCAAKPGRYADYDYNSWGQGTQVTVSS	low polyreactivity
QVQLVESGGGLVQAGGSLRLSCAASGSTFTINAKGWYRQATGKETELVAAITDSAGNTYYADSVKGRFTISRDNAKNTVYLQMNSLKPEDTAVYYCAAAWPSTGLLYVLGYSGYGYWGQGTQVTVSS	low polyreactivity
QVQLVESGGGLVQAGGSLRLSCAASGSTFTINAMGWYRQAPGKERELVAAISRSGGSTFYADSVKGRFTISRDNAKNTVYLQMNSLKPEDTAVYYCAAGYRGTAYRYGYCGQGTQVTVSS	high polyreactivity
